{
  "source": "patent US20030138873A1",
  "about": "“Tissue engineered cartilage for drug discovery” (priority 2002, published 2003)",
  "molecules": {"B1": {"name": "IL-1: cytokine interleukin-1 (IL-1α), known modulator inducing cartilage matrix degradation, used at 1 ng/ml (protein, UniProt P01583 113-271, looked up)", "Interleukin-1 alpha": "SAPFSFLSNVKYNFMRIIKYEFILNDALNQSIIRANDQYLTAAALHNLDEAVKFDMGAYKSSKDDAKITVILRISKTQLYVTAQDEDQPVLLKEMPEIPKTITGSETNLLFFWETHGTKNYFTSVAHPNLFIATKQDYWVCLAGGPPSITDFQILENQA"}},
  "key": {"[1]": {"tested_on": "engineered cartilage tissue", "test": "Cartilage matrix turnover measured using radiolabelling (35S-proteoglycan chase)", "format": "cell-based, bovine", "conditions": "for T½ of 35S-PGs in the tissue (loss of 35S-PGs) / T½ of 35S-PGs, bimodal rate of disappearance from the tissue: IL-1α 1 ng/ml; for T½ of 35S-PGs in the tissue (loss of 35S-PGs): 7-day chase; for T½ of 35S-PGs, bimodal rate of disappearance from the tissue: double exponential decay fit", "protocol": "(§1) Engineered Cartilage Tissue Formation: Engineered cartilage tissue was prepared as described in U.S. Pat. No. 6,197,061. Briefly, bovine articular chondrocytes were isolated from steer (14-18 months) and cultured in beads of 1.2% low viscosity alginate (Keltone LV, Kelco) at 4 million cells/ml in daily changes of medium containing 20% FBS, 25 μg/ml ascorbate and 10 μg/ml gentamicin, as described above in Mok, et al. On day 7, beads were dissolved by incubation for 20 minutes in 55 mM NaCitrate in 150 mM NaCl. The cells with their CM (cellular matrix) were recovered by mild centrifugation. The cells with their CM were resuspended in complete medium and seeded onto a tissue culture insert (0.4 μm pore size; 23 mm diameter, Falcon). After 7 and 21 days in culture, the de novo formed tissue was separated from the porous membrane and 4 mm diameter discs were punched out using a skin biopsy punch.\nDiscs of engineered cartilage tissue were punched out from engineered cartilage tissue on day 7 and 21 and were incubated for 16 h in complete medium containing ^35S-sulfate (20 μCi/ml). After washing to remove unincorporated radioisotope, the discs were cultured for 7 days in isotope-free medium with or without IL-1α (1 ng/ml). The medium in all cases was changed and collected for the measurement of ^35S-labeled proteoglycans (^35S-PGs). At various times, discs were collected and the content of ^35S-PGs in each disc and the corresponding spent medium fraction was measured by a rapid filtration assay (4). For each set of conditions (i.e. with or without IL-1α) the amount of radiolabeled PGs remaining in each matrix pool was plotted against time of chase to measure the average half-life of ^35S-PGs in each compartment. The data were fitted to the double exponential decay equation: y=ae^−bx+ce^−d+e and the half-life calculated based on b and d. Mok, et al., Aggrecan synthesized by mature bovine chondrocytes suspended in alginate: Identification of two distinct metabolic matrix pool, Biol. Chem., 269, 33021-33027 (1994)"}, "[2]": {"tested_on": "engineered cartilage tissue", "test": "Cartilage matrix turnover measured without radiolabelling (PG content by DMMB method)", "format": "cell-based, bovine", "protocol": "as §1\nDiscs of engineered cartilage tissue was punched out from engineered cartilage tissue on day 7 and cultured for 5 days in complete medium with/without IL-1α (1 ng/ml). Engineered cartilage tissue was obtained as described above. On days 1, 2, 3 and 5, the discs were harvested and digested with papain. After digestion the contents of sulfated PG and DNA were measured by the DMMB method and Hoechst 33258-dye method, respectively. […]"}, "[3]": {"conditions": "tissue radiolabeled on day 7 [1W]"}, "[4]": {"conditions": "tissue radiolabeled on day 21 [3W]"}},
  "data": [
    {"molecule": "B1", "values": [
      {"measurement": "T½ of 35S-PGs in the tissue (loss of 35S-PGs)", "setting": "[1]; [3]", "result": 41.5, "unit": "h"},
      {"measurement": "T½ of 35S-PGs, bimodal rate of disappearance from the tissue", "setting": "[1]; [3]", "result": 3.6, "unit": "h"},
      {"measurement": "T½ of 35S-PGs in the tissue (loss of 35S-PGs)", "setting": "[1]; [4]", "result": 49.9, "unit": "h"},
      {"measurement": "T½ of 35S-PGs, bimodal rate of disappearance from the tissue", "setting": "[1]; [4]", "result": 35.5, "unit": "h"},
      {"measurement": "appearance in the medium of 35S-PGs", "setting": "[1]; addition of IL-1 to the medium (1 ng/ml)", "result": "rapid increase"},
      {"measurement": "loss of the PGs from the engineered cartilage tissue", "setting": "[2]; IL-1 at 1 ng/ml, single day of treatment, day 7 discs", "result": 50, "unit": "%"},
      {"measurement": "loss of proteoglycan content of engineered cartilage matrix", "setting": "[2]; within a single day after treatment with IL-1", "result": "roughly half"}
    ]}
  ]
}
